These results are taken from patent US7067474B1, “Agents for treating human illnesses based on β-catenin, and the production and use thereof” (Max-Delbruck-Centrum fur Molekulare Medizin, priority 1998, dated 2006).

This assay concerns the target T1, β-catenin produced recombinantly in bacteria with N-terminal histidine sequence (Homo sapiens (Human), UniProt P35222 2-781).
T1 construct: Soluble partner in the ELISA (50-100 ng), detected with antibody PA2
T1 sequence: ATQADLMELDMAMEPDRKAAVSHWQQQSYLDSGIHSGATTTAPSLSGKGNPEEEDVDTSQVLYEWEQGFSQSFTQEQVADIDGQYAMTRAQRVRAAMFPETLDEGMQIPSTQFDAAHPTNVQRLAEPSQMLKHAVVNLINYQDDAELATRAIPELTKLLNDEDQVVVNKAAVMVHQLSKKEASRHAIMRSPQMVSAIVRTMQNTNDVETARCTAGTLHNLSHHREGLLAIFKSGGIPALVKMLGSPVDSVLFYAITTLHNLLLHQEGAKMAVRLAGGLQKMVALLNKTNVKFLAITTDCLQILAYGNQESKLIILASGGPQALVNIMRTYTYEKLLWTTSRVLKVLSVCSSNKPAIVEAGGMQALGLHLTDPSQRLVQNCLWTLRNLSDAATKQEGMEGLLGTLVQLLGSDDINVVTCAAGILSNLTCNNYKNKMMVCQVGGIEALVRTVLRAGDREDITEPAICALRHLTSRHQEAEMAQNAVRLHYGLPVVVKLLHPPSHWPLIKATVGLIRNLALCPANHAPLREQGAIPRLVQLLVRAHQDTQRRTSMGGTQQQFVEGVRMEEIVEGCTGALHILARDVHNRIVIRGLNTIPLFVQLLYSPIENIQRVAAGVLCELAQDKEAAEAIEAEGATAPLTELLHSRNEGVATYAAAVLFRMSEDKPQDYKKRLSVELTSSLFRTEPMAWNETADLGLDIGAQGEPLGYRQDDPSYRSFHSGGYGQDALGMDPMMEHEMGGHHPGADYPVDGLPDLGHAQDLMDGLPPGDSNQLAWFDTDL
As to the kind of experiment: competition ELISA, LEF-1 coated, β-catenin in solution, detection with antibody PA2. (In an ELISA, binding on a coated surface is turned into a signal by an enzyme label.)

Turning to GGDPELCATDEMIPFKDEGDPQKEK (peptide, UniProt P27782 10-34, looked up, range 10-34; the legend prints 10-34) [synthetic peptide of the minimum binding domain of LEF-1 (10-34)], the IC50 is 4 µM.

For orientation: IC50 means the concentration that gives 50% inhibition.
